Common to all, as to experiment: fluorescence anisotropy
The target of one data set is T1, Sgd1 MA3-Cterm (Saccharomyces cerevisiae, UniProt Q06132 645-899).
T1 sequence: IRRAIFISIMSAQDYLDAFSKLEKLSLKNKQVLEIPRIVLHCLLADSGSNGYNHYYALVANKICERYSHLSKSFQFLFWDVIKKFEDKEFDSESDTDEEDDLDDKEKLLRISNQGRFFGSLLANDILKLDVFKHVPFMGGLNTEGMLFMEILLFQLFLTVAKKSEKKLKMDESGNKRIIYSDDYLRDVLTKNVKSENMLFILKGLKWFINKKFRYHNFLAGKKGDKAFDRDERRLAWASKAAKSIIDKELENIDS

For data set [1], the target named is T2, Sgd1 MIF4G-Cterm (MIF4G, MA3 and C-terminal region) (Saccharomyces cerevisiae, UniProt Q06132 330-899).
T2 sequence: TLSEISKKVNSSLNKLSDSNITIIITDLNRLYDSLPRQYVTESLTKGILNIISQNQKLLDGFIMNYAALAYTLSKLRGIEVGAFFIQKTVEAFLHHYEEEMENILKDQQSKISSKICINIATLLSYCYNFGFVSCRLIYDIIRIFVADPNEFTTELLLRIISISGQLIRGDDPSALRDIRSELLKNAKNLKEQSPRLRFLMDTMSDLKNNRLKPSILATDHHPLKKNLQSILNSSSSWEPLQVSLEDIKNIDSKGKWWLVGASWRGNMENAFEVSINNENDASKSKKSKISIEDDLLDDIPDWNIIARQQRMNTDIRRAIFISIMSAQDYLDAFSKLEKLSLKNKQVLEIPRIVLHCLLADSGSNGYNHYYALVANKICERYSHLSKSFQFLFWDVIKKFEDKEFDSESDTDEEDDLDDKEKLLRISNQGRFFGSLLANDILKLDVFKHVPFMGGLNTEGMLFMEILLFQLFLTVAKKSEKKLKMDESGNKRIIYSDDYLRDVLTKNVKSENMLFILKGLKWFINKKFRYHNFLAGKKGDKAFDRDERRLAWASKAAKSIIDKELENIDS

Another data set has as its target T3, Sgd1 Nterm-MIF4G (Saccharomyces cerevisiae, UniProt Q06132 1-541).
T3 sequence: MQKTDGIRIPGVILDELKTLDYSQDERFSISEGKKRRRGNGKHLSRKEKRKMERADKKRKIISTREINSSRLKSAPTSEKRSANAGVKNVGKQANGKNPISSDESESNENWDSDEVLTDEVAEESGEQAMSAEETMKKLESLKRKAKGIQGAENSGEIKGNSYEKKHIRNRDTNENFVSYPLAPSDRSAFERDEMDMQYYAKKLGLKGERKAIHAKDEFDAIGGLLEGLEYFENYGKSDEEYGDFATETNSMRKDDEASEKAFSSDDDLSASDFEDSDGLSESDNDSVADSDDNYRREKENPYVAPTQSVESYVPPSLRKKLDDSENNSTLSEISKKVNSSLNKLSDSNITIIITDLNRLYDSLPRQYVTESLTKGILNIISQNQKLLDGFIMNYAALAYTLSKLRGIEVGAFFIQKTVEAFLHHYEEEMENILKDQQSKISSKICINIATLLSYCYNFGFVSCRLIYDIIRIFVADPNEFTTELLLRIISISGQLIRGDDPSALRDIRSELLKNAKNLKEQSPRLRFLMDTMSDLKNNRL

In the case of GUAAUGAAAGU (ssRNA) [11 nt Atto647-labelled RNA], the binding result with Sgd1 MA3-Cterm is given as “binds”; in data set [1] it was “binds”; in the data set with Sgd1 Nterm-MIF4G, “no binding”.
